The record followed here is US20230183322A1 (PEKING UNIVERSITY, published 2023).

Substitutions are numbered along the chain they refer to.

The assay has as its target biotin-labeled SARS-COV-2 RBD domain (SARS-CoV-2, UniProt P0DTC2 319-541). Kind of assay: SPR, Biacore T200, biotin-RBD on SA chip, antibody as analyte.

B1: ABU-325 (antibody, V domains shown)
VH: EVQLVESGGGLIQPGGSLRLSCAASGFTVSSNYMSWVRQAPGKGLEWVSVIYSGGSTYYADSVKGRFTISRDNSKNTLYLQMNSLRAEDTAVYYCARDRRVGSPYYYYYMDVWGKGTTVTVSS
VL: QTVVTQEPSLTVSPGGTVTLTCASSTGAVTSGYYPNWFQQKPGQAPRALIYSTSNKHSWTPARFSGSLLGGKAALTLSGVQPEDEAEYYCLLYYGGAPVFGGGTKLTVL
The term Kd denotes the free concentration of one partner at which half of the binding sites on the other are occupied at equilibrium, for simple one-to-one binding. Read a low Kd as a tighter complex. B1 displayed a Kd of less than 10 nM.

B2: ABU-210 (antibody, V domains shown)
VH: EVQLVESGGGLVQPGRSLRLSCAASGFTFDDYAMHWVRQAPGKGLEWVSGISWNSGTIGYEDSVKGRFIISRDNAKNSLYLQMNSLRAEDTALYYCAKEPLFGETYGMDVWGQGTTVTVSS
VL: QSALTQPASVSGSPGQSITISCTGTSSDVGGYNYVSWYQHHPGKAPKLMIYEVSNRPSGVSNRFSGSKSANTASLTISGLQTEDEADYYCSSYTSISTVLFGGGTKLTVL
B2 came in with a Kd of less than 10 nM.

B3: ABU-211 (antibody, V domains shown)
VH: EAQLVESGGGLVQPGRSLTVSCAVSGFTFDDYAMHWVRQAPGKGLEWVSSISWNSEKIAYADSVKGRFTVSRDNAKNSLYLQMTSLRPEDTALYYCARDKGSGSYYSGAYYYYMDVWGKGTTVTVSS
VL: SDALTQPPSVSVAPGKTAAITCGGDNIGSKNVHWYQQKPGQAPLLVVFDDGDRPSGIPERFSGSNSGNTATLTISRVEAGDEADYYCQVWDGGSDDRGYVFGTGTKVTVL
Molecule B3 gave a Kd of less than 20 nM.

B4: ABU-317 (antibody, V domains shown)
VH: QVQLVESGGGVVQPGWSLRLSCAASGFTFSSFAMYWVRQAPGKGLEWVAVISYDGANKYYADSVKGRFTISRDNSKNTLYLQVNSLRVEDTAVYYCARGPDYYDTGGYFDLWGRGTLVTVSS
VL: QSVLTQPPSVSAAPGQKVTISCSGSSSNIGNNYVSWYQQLPGTAPKLLIYDNNKRPSGIPDRFSGSKSGTSATLGITGLQTGDEADYYCGTWDSSLSAGVFGGGTKLTVL
Turning to B4, the dissociation constant Kd is less than 20 nM.

B5: ABU-320 (antibody, V domains shown)
VH: QVQLVESGGGVVQPGRSLRLSCAASGFTFSSYATHWVRQAPGKGLEWVAVISYDGSNKYHADSVKGRFTISRDNSKNTLYLQMNSLRAEDTAVYYCAREWSRGAVAGTGYFDYWGQGTLVTVSS
VL: SYVLTQPPSVSVAPGKTARITCGGNNIGSKSVHWYQQKPGQAPVLVVYDDSDRPSGIPERFSGSNSGNTATLTISRVEAGDEADYYCQVWDSSGDHWVFGGGTKLTVL
In the case of B5, the Kd is less than 10 nM.

B6: ABU-205 (antibody, V domains shown)
VH: QVQLVQSGAEVKKPGSSVKVSCKASGGTFSSYAISWVRQAPGQGLEWMGRIIPIFGTANYAQKFQGRVTITADESTSTAYMELSSLRSEDTAVYYCARAAYYYDSSGYGWFDPWGQGTLVTVSS
VL: not shown
For the molecule B6, the Kd is less than 10 nM.

B7: ABU-254 (antibody, V domains shown)
VH: B6 VH
VL: not shown
The molecule B7 displayed a Kd of less than 10 nM.

B8: ABU-328 (antibody, V domains shown)
VH: EVQLVESGGGLVQPGGSLRLSCAASGFTVSSNYMSWVRQAPGKGLEWVSVIYSGGSTYYADSVKGRFTISRDNSKNTLYLQMNSLRAEDTAVYYCARLSGTGYGGDGGWFDPWGQGTLVTVSS
VL: QSALTQPASVSGSPGQSITISCTGTSSDVGSYNLVSWYQQHPGKAPKLMIYEVSKRPSGVSNRFSGSKSGNTASLTISGLQAEDEADYYCCSYAGSSLWVFGGGTKLTVL
Consider B8, for which the Kd is less than 10 nM.

B9: ABU-181 (antibody, V domains shown)
VH: QVQLQESGPGLVKPSQTLSLICTVSDDSISSGSYYWSWIRQPAGKGLEWIGRIYAGESTNYNPSLKSRVIISVDTSKKQFSLRLSSVTAADTAVYYCARGAVVTPFGLDSWGQGTLVTVSS
VL: SYELTQPPSVSVSPGQTARITCSGDALPKQYAYWYQQKTGQAPVLVIYKDSERPSGIPERVSGSSSGTTVTLTISGVQAEDEADYYCQSADSSGTWVFGGGTKLTVL
Molecule B9 displayed a Kd of less than 10 nM.

B10: ABU-145 (antibody, V domains shown)
VH: QVQLQESGPGLVKPSQTLSVTCTVSGGSINRDGHYWIWIRQHPEKGLEWLGYIYSGRNTFYNPSLRSRLSISADTSKSQFSLNLHSVTAADTAVYYCAKMYSDYDDNYYGLDVWGRGTTVTVSS
VL: EIVLTQSPGTLSLSPGERATLSCRASHTISSSYLAWYQQKAGQAPRLLIYAASSRATGIPARFSGSGSGTDFTLTISRLEPEDFAVYYCQQFDNSPPWTFGRGTKVEMR
B10: the equilibrium dissociation constant (Kd) was less than 10 nM.

B11: ABU-316 (antibody, V domains shown)
VH: QVQLVESGGGVVQPGRSLRLSCAASGFTFSSYGMHWVRQAPGKGLEWVAVISYDGSNKYYVDSVKGRFTISRDNSKNTLYLQMNSLRAEDTAVYYCAKDPYYYGSGSSNFFDYWGQGTLVTVSS
VL: SYVLTQPPSVSVAPGKTARITCGGNNIGSKSVHWYQQKPGQAPVLVVYDDNDRPSGIPDRFSGSNSGNTATLTISRVEAGDEADYYCQVWDSSSDHYWVFGGGTKLTVL
Consider B11, for which the Kd is less than 10 nM.

B12: ABU-319 (antibody, V domains shown)
VH: B11 VH with S52W, V61A, D99G, P100E, Y101G, Y102V, S108R, N109Y, F111L
VL: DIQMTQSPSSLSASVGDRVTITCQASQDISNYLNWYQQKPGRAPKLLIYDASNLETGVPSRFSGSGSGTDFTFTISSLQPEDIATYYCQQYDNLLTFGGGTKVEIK
B12 displayed a Kd of less than 10 nM.

B13: ABU-305 (antibody, V domains shown)
VH: QVQLVQSGAEVKKPGASVKVSCKASGYTFTSYGISWVRQAPGQGLEWMGWISAYNGNTNYAQKLQGRVTMTTDTSTSTAYMELRSLRSDDTAVYYCARDGHSAWGAFDIWGQGTMVTVSS
VL: not shown
As to B13, the Kd is less than 20 nM.

B14: ABU-330 (antibody, V domains shown)
VH: QVQLQESGPGLVKPSQTLSLTCTVSGGSISSGGYYWSWIRQHPGKGLEWIGYIYYSGSTYYNPSLKSRVTISVDTSKNQFSLKLSSVTAADTAVYYCARGGSGSGWYGGRFDYWGQGTLVTVSS
VL: EIVLTQSPATLSLSPGERATLSCRASQSVSSYLAWYQQKPGQAPRLLIYDASNRATGIPARFSGSGSGTDFTLTISSLEPEDFAVYYCQQRSNWLFTFGPGTKVDIK
Turning to B14, the Kd is less than 10 nM.

B15: ABU-337 (antibody, V domains shown)
VH: QVQLVESGGGVVQPGRSLRLSCAASGFTFSTSAMHWVRQAPGKGLEWVAGISYDGSNEHLDSVKGRFTISRDNSKNTLYLQMSSLRPEDTAVYYCARCPFWNYGHCYLDNWGQGTLVTVSS
VL: B14 VL with Y49F, S92N, N93K, L95P, F96G, P100Q, D105E
B15: the Kd was less than 20 nM.

B16: ABU-312 (antibody, V domains shown)
VH: EVQLLESGGGLVQPGGSLRLSCAASGFTFSTYAMSWVRQAPGKGLEWVSVISGSGGSTYYADSVKGRFTISRDNSKNTLYLQMNSLRAEDTAVYYCAKEYYYDSSGYYYREDAFDIWGQGTMVTVSS
VL: DIQMTQSPSAMSASVGDRVTITCRASQGISNYLAWFQQKPGKVPKRLIYAASSLQSGVPSRFSGSGSGTEFTLTISSLQPEDFATYYCLQHNSYPRTFGQGTKVEIK
The molecule B16 yielded a Kd of less than 20 nM.

B17: ABU-339 (antibody, V domains shown)
VH: EMQLLESGGGLVQPGGSLRLSCAASGFTFFSYALSWVRQAPGKGLEWVSGISGISDSGGNTYYADSVKGRFTISRDNSQNMLYLQMNSLRVEDTAVYYCAKERRPVLRYFDWLPIEAPDYWGPGTLVTVSS
VL: AIQLTQSPSSLSASVGDRVTITCRASQGISSSLAWYQQKPGKAPKLLIYSASTLQSGVPSRFSGSGSGTDFTLTITSLQPEDFATYYCQQLNSYPLTFGGGTKVEIK
On to B17, for which the Kd is less than 20 nM.

B18: ABU-343 (antibody, V domains shown)
VH: QVQLVQSGAEVKKPGASVKVSCKASGYTFTNYYMHWMRQAPGQGLEWMGIINPSGGSTSYAHQFQGRVTMTRDTSTSTVYMEMSSLRSEDTAVYFCVVGIGYCSSPSCPPLRWFDYWGQGTLVTVSS
VL: B17 VL with S32A, L46V, S50D, T53G, S65G, T76S, L91F, S93D
Molecule B18 returned a Kd of less than 20 nM.

B19: ABU-298 (antibody, V domains shown)
VH: QVQLVQSGAEVKKPGASVKVSCKASGYTFTSYGISWVRQAPGQGLEWMGWISAYNGNTNYAQKLQGRVTMTTDTSTSTAYMELRSLRSDDTAVYYCARDESGSYYGDQAFDIWGQGTMVTVSS
VL: not shown
B19: the Kd is less than 20 nM.

B20: ABU-329 (antibody, V domains shown)
VH: EVQLVESGGGLVQPGGSLRLSCAASGFTFSSYWMHWVRQAPGKGLVWVSRIKSDGSSTSYADSVKGRFTISRDNAKNTLYLQMNSLRAEDTAVYYCAGKKIYYGSSFDPWGQGTLVTVSS
VL: NFMLTQPHSVSESPGKTVTISCTRSSGSIASNYVQWYQQRPGSAPTTVIYEDNQRPSGVPDRFSGSIDSSSNSASLTISGLKTEDEADYYCQSYDSSNQVFGGGTKLTVL
Consider B20, for which the Kd is less than 10 nM.

B21: ABU-288 (antibody, V domains shown)
VH: QVQLQESGPGLVKPSQTLSLTCTVSGGSISSGLYHWSWIRQPAGKGLEWIGRIFSSGSTAYSPSLKSRVIISADTSKNQFSLKLSSVTAADTAVYYCARDSPLKFDSFGYPLYGMDVWGQGTTVTVSS
VL: DIQMTQSPSSLSASVRDKVTITCRASQSISSCLNWYQQKPGKAPKVLIYAASSLQSGVPSRFSGSGSGTDFTLTISSVQPEDFATYYCQQSYSVPHTFGQGTKVEIK
Take B21: the Kd is less than 1 nM.

B22: ABU-289 (antibody, V domains shown)
VH: QVQLVQSGAEVKKPGSSVKVSCKASGGTFSSYTISWVRQAPGQGLEWMGRIIPILGIANYAQKFQGRVTITADKSTSTAYMELSSLRSEDTAVYYCARGIVGATPGYFDYWGQGTLVTVSS
VL: EIVMTQSPATLSVSPGERATLSCRASQSVSSNLAWYQQKPGQAPRLLIYGASTRATGIPARFSGSGSGTEFTLTISSLQSEDFAVYYCQQYNNWLTFGGGTKVEIK
Regarding B22, the Kd is less than 10 nM.

B23: ABU-323 (antibody, V domains shown)
VH: EVQLVESGGGLVQPGGSLRLSCAASGFTVSSNYMSWVRQAPGKGLEWVSVIYSGGTTYYADSVKGRFTISRHNSKNTLYLQMNSLRAEDTAVYYCARDWGEYYFDYWGQGTLVTVSS
VL: not shown
For B23, the Kd is less than 20 nM.

B24: ABU-394 (antibody, V domains shown)
VH: B23 VH with V12I, T56S, H72D, D98S, W99Y, E101D
VL: DIQLTQSPSSLSASVGDRVTITCRASQGISSYLAWYQQKPGKAPKLLIYAASTLQSGVPSRFSGSGSGTDFTLTISSLQPEDFATYYCQQLNSFGPGTKVDIK
Regarding B24, the Kd was less than 20 nM.

B25: ABU-393 (antibody, V domains shown)
VH: B23 VH with V12I, T56S, H72D, W99Y, E101D, Y103W, Y106P
VL: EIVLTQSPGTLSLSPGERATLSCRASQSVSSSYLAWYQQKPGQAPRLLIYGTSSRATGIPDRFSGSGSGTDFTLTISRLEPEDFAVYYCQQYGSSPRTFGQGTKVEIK
As to B25, the Kd was less than 20 nM.
